One molecule from publication PMC5855951 can be followed below.

For this data set, the target named is METTL3;METTL14 (human?;human?, UniProt Q86U44;Q9HCE5 1-580;1-456, |). The data set can be described thus: filter binding.
Chain of METTL3;METTL14 (Q86U44 whole entry, chain 1 of 2): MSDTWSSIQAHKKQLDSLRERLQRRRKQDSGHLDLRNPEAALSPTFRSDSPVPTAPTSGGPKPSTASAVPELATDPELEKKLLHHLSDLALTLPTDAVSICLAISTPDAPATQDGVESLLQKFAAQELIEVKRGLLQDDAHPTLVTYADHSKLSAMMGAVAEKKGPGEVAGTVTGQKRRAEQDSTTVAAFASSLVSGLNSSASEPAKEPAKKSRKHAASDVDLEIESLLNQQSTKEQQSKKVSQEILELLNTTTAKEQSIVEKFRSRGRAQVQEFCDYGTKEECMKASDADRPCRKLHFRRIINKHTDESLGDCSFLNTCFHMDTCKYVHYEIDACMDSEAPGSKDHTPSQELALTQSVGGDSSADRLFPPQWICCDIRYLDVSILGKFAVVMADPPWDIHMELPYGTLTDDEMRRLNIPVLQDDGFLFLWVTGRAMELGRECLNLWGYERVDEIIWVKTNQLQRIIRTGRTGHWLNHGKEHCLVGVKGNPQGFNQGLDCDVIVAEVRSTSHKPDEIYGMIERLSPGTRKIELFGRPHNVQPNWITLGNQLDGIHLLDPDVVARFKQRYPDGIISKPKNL
Chain of METTL3;METTL14 (Q9HCE5 whole entry, chain 2 of 2): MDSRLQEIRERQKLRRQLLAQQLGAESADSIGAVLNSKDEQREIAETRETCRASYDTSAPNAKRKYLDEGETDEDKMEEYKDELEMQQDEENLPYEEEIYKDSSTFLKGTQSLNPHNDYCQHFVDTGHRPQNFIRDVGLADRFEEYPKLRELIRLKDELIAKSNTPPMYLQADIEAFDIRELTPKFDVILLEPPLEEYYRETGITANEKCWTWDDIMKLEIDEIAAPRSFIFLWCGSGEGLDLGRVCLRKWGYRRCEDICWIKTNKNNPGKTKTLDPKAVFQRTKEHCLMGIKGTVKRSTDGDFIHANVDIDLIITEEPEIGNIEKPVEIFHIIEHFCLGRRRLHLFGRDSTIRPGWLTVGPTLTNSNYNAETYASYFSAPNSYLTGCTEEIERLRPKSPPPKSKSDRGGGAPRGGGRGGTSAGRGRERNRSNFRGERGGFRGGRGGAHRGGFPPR

B1: 4x GGACU RNA probe (ssRNA)
RNA: GGACUGGACUGGACUGGACU
On to B1, for which the binding result was “binds”.
